The record followed here is US11371056B2, “HPPD variants and methods of use” (BASF Agricultural Solutions Seed US LLC, priority 2017, dated 2022).

The test system of this data set is Pseudomonas fluorescens HPPD polypeptide (wild-type and mutants). The data set can be described thus: Coupled HPPD activity assay: turnover and residual turnover in crude HPPD polypeptide extracts with and without Cmpd. 1. To be noted: for Residual turnover [%]: 100 μM Cmpd. 1, normalised to turnover without inhibitor; for Turnover: absence of Cmpd. 1; for Turnover / Residual turnover: changes in absorbance (OD) at 320 nm in the coupled assay, 30 min; for Residual turnover: presence of 100 μM Cmpd. 1. It is filed as biochemical.

B1: SEQ ID NO:60 (protein)
chain: MADLYENPMGLMGFEFIEFASPTPGTLEPIFEIMGFTKVATHRSKNVHLYRQGEINLILNNEPNSIASYFAAEHGPSVCGMAFRVKDSQKAYNRALELGAQPIHIDTGPMELNLPAIKGIGGAPLYLIDRFGEGSSIYDIDFVYLEGVERNPVGAGLKVIDHLTHNVYRGRMVYWANFYEKLFNFREARYFDIKGEYTGLTSKAMSAPDGMIKIPLNEESSKGAGQIEEFLMQFNGEGIQHVAFLTDDLVKTWDALKKIGMRFLTAPGDEYYEMLEGRLPDHGEPVDQLQARGILLDGSSVEGDKRLLLQIFSEKLMGPVFFEFIQRKGDDGFGPDSFKVLFEQMERDQVRRGVLTAD
modifications: mutant HPPD polypeptide
Regarding B1, the “Residual turnover [%]” value is 56%, the Turnover is given as 0.252 and the Residual turnover was 0.14.

B2: SEQ ID NO:65 (protein)
chain: MADLYENPMGLMGFEFIEFASPTPGTLEPIFEIMGFTKVATHRSKNVHLYRQGEINLILNNEPNSIASYFAAEHGPSVCGMAFRVKDSQKAYNRALELGAQPIHIDTGPMELNLPAIKGIGGAPLYLIDRFGEGSSIYDIDFVYLEGVERNPVGAGLKVIDHLTHNVYRGRMVYWANFYEKLFNFREARYFDIKGEYTGLTSKAMSAPDGMIRIPLNEESSKGAGQIEEFLMQFNGEGIQHVAFLTDDLVKTWDALKKIGMRFLTAPGDEYYEMLEGRLPDHGEPVDQLQARGILLDGSSVEGDKRLLLQIFSEKLMGPVFFEFIQRKGDDGFGPDSFKVLFEQIERDQVRRGVLTAD
modifications: mutant HPPD polypeptide
On to B2, for which the “Residual turnover [%]” value was 60%, the Turnover was 0.204 and the Residual turnover came to 0.123.

B3: SEQ ID NO:66 (protein)
chain: MADLYENPMGLMGFEFIEFASPTPGTLEPIFEIMGFTKVATHRSKNVHLYRQGEINLILNNEPNSIASYFAAEHGPSVCGMAFRVKDSQKAYNRALELGAQPIHIDTGPMELNLPAIKGIGGAPLYLIDRFGEGSSIYDIDFVYLEGVERNPVGAGLKVIDHLTHNVYRGRMVYWANFYEKLFNFREARYFDIKGEYTGLTSKAMSAPDGMIRIPLNEESSKGAGQIEEFLMQFNGEGIQHVAFLTDDLVKTWDALKKIGMRFLTAPGDEYYEMLEGRLPDHGEPVDQLQARGILLDGSSVEGDKRLLLQIFSEQLMGPVFFEFIQRKGDDGFGPDSFKVLFEQIERDQVRRGVLTAD
modifications: mutant HPPD polypeptide
Turning to B3, the “Residual turnover [%]” value was 65%, the Turnover worked out at 0.187 and the Residual turnover amounted to 0.122.

B4: SEQ ID NO:63 (protein)
chain: MADLYENPMGLMGFEFIEFASPTPGTLEPIFEIMGFTKVATHRSKNVHLYRQGEINLILNNEPNSIASYFAAEHGPSVCGMAFRVKDSQKAYNRALELGAQPIHIDTGPMELNLPAIKGIGGAPLYLIDRFGEGSSIYDIDFVYLEGVERNPVGAGLKVIDHLTHNVYRGRMVYWANFYEKLFNFREARYFDIKGEYTGLTSKAMSAPDGMIKIALNEESSKGAGQIEEFLMQFNGEGIQHVAFLTDDLVKTWDALKKIGMRFLTAPGDEYYEMLEGRLPDHGEPVDQLQARGILLDGSSVEGDKRLLLQIFSEKLMGPVFFEFIQRKGDDGFGPHSFKVLFEQMERDQVRRGVLTAD
modifications: mutant HPPD polypeptide
B4: the “Residual turnover [%]” value is reported as 67%, the Turnover was 0.209 and the Residual turnover was 0.139.

B5: SEQ ID NO:64 (protein)
chain: MADLYENPMGLMGFEFIEFASPTPGTLEPIFEIMGFTKVATHRSKNVHLYRQGEINLILNNEPNSIASYFAAEHGPSVCGMAFRVKDSQKAYNRALELGAQPIHIDTGPMELNLPAIKGIGGAPLYLIDRFGEGSSIYDIDFVYLEGVERNPVGAGLKVIDHLTHNVYRGRMVYWANFYEKLFNFREARYFDIKGEYTGLTSKAMSAPDGMIKIPLNEESSKGAGQIEEFLMQFNGEGIQHVAFLTDDLVKTWDALKKIGMRFLTAPGDEYYEMLEGRLPDHGEPVDQLQARGILLDGSSVEGDKRLLLQIFSEQLMGPVFFEFIQRKGDDGFGPHSFKVLFESMERDQVRRGVLTAD
modifications: mutant HPPD polypeptide
Regarding B5, the “Residual turnover [%]” value worked out at 61%, the Turnover worked out at 0.295 and the Residual turnover was determined as 0.181.
